# Measurements from patent US20130281314A1 (Genentech, published 2013).
# B1: USP14catC114A (enzyme, UniProt P54578 91-494, looked up)
# chain: DMTEEQLASAMELPCGLTNLGNTAYMNATVQCIRSVPELKDALKRYAGALRASGEMASAQYITAALRDLFDSMDKTSSSIPPIILLQFLHMAFPQFAEKGEQGQYLQQDANECWIQMMRVLQQKLEAIEDDSVKETDSSSASAATPSKKKSLIDQFFGVEFETTMKCTESEEEEVTKGKENQLQLSCFINQEVKYLFTGLKLRLQEEITKQSPTLQRNALYIKSSKISRLPAYLTIQMVRFFYKEKESVNAKVLKDVKFPLMLDMYELCTPELQEKMVSFRSKFKDLEDKKVNQQPNTSDKKSSPQKEVKYEPFSFADDIGSNNCGYYDLQAVLTHQGRSSSSGHYVSWVKRKQDEWIKFDDDKVSIVTPEDILRLSGGGDWHIAYVLLYGPRRVEIMEEESEQ
# modifications: monobiotinylated at the C-terminal Avi tag
# notes: range 91-494; N-terminal His tag removed with TEV protease; also called catalytic domain of USP14 (residues D91-Q494) with a C114A mutation; not shown: C-terminal Avi tag
# Biological target: T1, Wildtype ubiquitin (human, UniProt P0CG48 1-76)
# T1 construct: also called wt; not shown: N-terminal 6xHis tag of the pET derivative vector
# Test: biolayer interferometry, USP14catC114A on sensors, steady state fit
binder,measurement,value
B1,Kd,100 µM
